Consider two molecules from US20040208887A1.

In the assay the target is recombinant E2 (genotype 1a) (hepatitis C virus genotype 1a) (UniProt P26664). Nature of the assay: ELISA, E2 coated as negative control antigen; crude periplasmic Fab.
Sequence of recombinant E2 (genotype 1a) (hepatitis C virus genotype 1a) (P26664 384-715 limits assumed): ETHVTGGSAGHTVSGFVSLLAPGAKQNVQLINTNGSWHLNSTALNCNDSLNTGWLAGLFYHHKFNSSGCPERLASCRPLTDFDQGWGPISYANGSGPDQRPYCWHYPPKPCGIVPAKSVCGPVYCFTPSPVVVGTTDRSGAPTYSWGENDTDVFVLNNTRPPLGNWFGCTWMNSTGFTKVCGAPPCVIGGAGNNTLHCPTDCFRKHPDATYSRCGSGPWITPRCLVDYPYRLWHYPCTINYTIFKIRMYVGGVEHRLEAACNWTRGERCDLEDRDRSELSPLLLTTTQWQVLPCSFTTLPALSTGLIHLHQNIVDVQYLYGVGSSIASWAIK

B1: Fab clone 6a:5 (Fab, V domains shown)
VH: EVQLLESGPGLVKPSQTLSLTCAISGDNVSRKSAAWNWIRQSPSRGLEWLGRTYHMSKWYSVYATSLKSRININVDTSRNQFALQLRSVTPEDTAVYYCAREGPEWAVGGTYGMDVWGQGTTVTVSS
VL: AELTQSPDTLSLSPGERATLSCRASQSVNNNYLAWYQQKPGQAPRLLIYGASSRATGIPDRFSGSGSETDFTLTISRLEPEDFAVYYCQQYDSSRTFGQGTKVEIK
For B1, the OD405 nm is 0.03 OD405 nm.

B2: Fab clone 4:6 (Fab, V domains shown)
VH: VQLLEQSGAEVKKPGASVKVSCKASGYTFTKYYLHWVRQAPGQGLEWMGFINPSGGSTSSAQKFQGRISMTRDTSTTTVYMEVNSVTSEDTAVYYCARVGRLGVGATGAFDLWGQGTMVTVSS
VL: AELTQSPSSLSASVGDRVTITCQASQDINYSLNWYQQKPGKPPKLLIYYASHSDTGVPSRFSGGGSGTRFTLTIYSLQPEDIATYYCQHFDHVPRYTFGPGTKVDLK
B2: the OD405 nm amounted to 0.08 OD405 nm.
